Ends that are not written are not given here.
Legend:
Aβ (1-40) peptide = molecular target: T1, Aβ (1-40) peptide (Homo sapiens, UniProt P05067); test: In vitro formation of amyloid fibril from Aβ (1-40), Thioflavin T fluorescence; assay type: biochemical; conditions: for effect on Aβ fibril formation (in words): 33 μM Aβ, ThT fluorescence; for Lag (fold change) / Rate (fold change): relative to No addition, asterisk = statistically significant
T1 construct: synthetic Aβ (1-40) peptide; purchased Biosource, Camarillo, Calif., USA; host or cells: chemical synthesis
Excerpt: In vitro formation of amyloidfibril—In vitro formation of amyloid fibril was in the presence of the synthetic Aβ (1-40) peptide (Biosource, Camarillo, Calif., USA) as a precursor. The reporter molecule was Thioflavin T (ThT) (Sigma, Cat. No. T-3516, Jerusalem, Israel), a benzothiazole dye that undergoes a shift in its excitation spectrum (from 340 nm to 450 nm) when interacting with β-sheet amyloid structures. The resultant ThT fluorescence signal is proportional to the amount of amyloid formed (LeVine, 1993). A stock solution of Aβ in dimethylsulfoxide (DMSO) was diluted with phosphate-buffered saline (PBS) containing 0.02% Na-Azid to a final concentration of 162 μM and 20 μl of the diluted Aβ solution was placed in each well of a 96 multiwell plate (Nunc, Roskilde, Denmark). After 20 minutes of pre-incubation at room temperature of the Aβ samples (20 μl), 80 μl of 1.25 μM ThT in 50 mM glycine buffer, pH 8.5, was added. Incubation was with shaking at 200 rpm for 6 to 8 hours at the noted temperatures. Fluorescence was measured continuously or at 30-40 minute intervals, using a Spectro-fluorometer (Tecan, Maennedorf, Switzerland). Excitation and emission wavelengths were 450 nm and 485 nm, respectively. Enhancement of the fibrillation process by the different combinations of water-dissolved cholinesterases and peptides mimicking fragments thereof, was evaluated by dissecting the time curves into two stages: the lag before the onset of the fluorescence increase (the nucleation process) and the average rate of fluorescence increase at several time points (rate of fibrils formation). Statistics analysis was performed using the Kaleidagraph Software (Reading, Pa., USA).
BChE attenuates amyloid fibrils formation—Amyloid fibril (Aβ) formation was quantified by measuring changes in ThT fluorescence. As predicted, Aβ fibrils were spontaneously formed in vitro provided that the Aβ peptide was present above 5 μM. […] Reactions were performed in the absence or presence of increasing concentrations of purified human BChE (SEQ ID NO:2; FIG. 1a), recombinant ACHE-S (SEQ ID NO:6; FIG. 1b) or both (FIGS. 1c and d). […] Due to the complex kinetics of the fibril formation process the apparent rate of change in ThT fluorescence was repeatedly determined during the exponential phase of increase in its signal (at 390±20 minutes). […] In contrast, addition of similar doses of AChE to Aβ, predictably shortened by half the lag time prior to fibril formation, again in a dose dependent manner (FIG. 1e). The lag period therefore decreased from 240 minutes to 150 minutes and the maximal rate of fibril formation increased from 0.057 to 0.116 fluorescence units (FU)/min for Aβ alone as compared to Aβ in the presence of 0.36 μM AChE-S (FIG. 1b and Table 7, hereinbelow). When increasing doses of hBChE were added to a combined mix of 33 μM Aβ with 0.36 μM AChE-S, a dose-dependent interference with the fibril formation process was observed (FIG. 1c and 2a). Thus, BChE is capable of reducing the rate of fibrillation of Aβ alone, or Aβ which is formed in the presence of AChE.

[1] = Solubility in water for CD measurements; assay type: physicochemical; conditions: up to the concentration required for CD tests (1×10^−4 M); HFIP used instead
Description: Circular Dichroism (CD) measurements—For circular dichroism (CD) measurements, ASP peptides were dissolved in double distilled water (DDW) to a final concentration of 1×10^−4 M. To reach this concentration, as required for the CD measurements, BSP had to be dissolved in 1,1,1,3,3,3-hexafluoro-2-propanol (HFIP). Direct CD spectra were recorded at room temperature using a CD Jasco J-810 Spectropolarimeter (Easton, Md., USA) with a 1 mm path length cell. Recordings were at 0.5 nm intervals in the spectral range 185-260 nm.
Molecular modeling points at putative structural differences between BSP and ASP—In search for structural differences between the BSP and ASP peptides, the circular dichroism (CD) properties of the synthesized series of BSP and ASP peptides were determined (FIG. 4). […] The helical features observed for ASP40 are in line with reports of others (Cottingham et al., 2003).

T1 sequence (P05067 672-711 limits assumed): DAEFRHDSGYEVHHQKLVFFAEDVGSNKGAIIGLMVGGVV

Row | Substance | effect on Aβ fibril formation (in words) (Aβ (1-40) peptide) | Lag (fold change) (Aβ (1-40) peptide) | Rate (fold change) (Aβ (1-40) peptide) | solubility in water (in words) [1]
1 | ASP40: synthetic AChE-S C-terminal peptide, mimics residues 575-614 in hAChE (DTLDEAERQWKAEFHRWSSYMVHWKNQFDHYSKQDRCSDL; ASP40 Synthetic peptide) [reference compound] | failed to show any significant capacity to activate or inhibit fibrillation | 1.1 fold change | 0.8 fold change | –
2 | GNIDEAEWEWKAGFHRWNNYMMDWKNQFNDYTSKKESCVGL [BSP41] | – | – | – | difficulties to solubilize
3 | ASP23: synthetic AChE-S C-terminal peptide, mimics residues 592-614 in hAChE [reference compound] | no significant effect on amyloid formation | 1.1 fold change | 1.2 fold change | –

Reference: patent US20090169520A1, “Compounds, Pharmaceutical Compositions and Therapeutic Methods of Preventing and Treating Diseases and Disorders Associated With Amyloid Fibril Formation” (YISSUM RESEARCH DEVELOPMENT COMPANY OF THE HEBREW …, priority 2005, published 2009)
